Kd data for 17 sequences are collected here from the Immune Epitope Database (IEDB).

One test deals with HLA-B*15:03. The test can be described thus: IEDB peptide-MHC binding, purified MHC/competitive/radioactivity; filed as Kd, often an IC50 or EC50 that approximates it; ≥ and ≤ were set here for values at or beyond the usual limits of such assays.
The target of test [1] is HLA-B*15:01. Described as above.
Another test addresses HLA-B*51:01. The test can be described thus: IEDB peptide-MHC binding, purified MHC/competitive/fluorescence; filed as Kd, often an IC50 or EC50 that approximates it; ≥ and ≤ were set here for values at or beyond the usual limits of such assays.
In the next test the target is HLA-A*02:11. Described as above.
The next test deals with HLA-A*69:01. Described as above.
A further test deals with HLA-B*15:17. Described as above.
A further test deals with HLA-A*02:12. Described as above.
The next test concerns the target HLA-A*02:19. The test is described as above.
For a further test, the target named is HLA-A*29:02. The description is as above.
For a further test, the target named is HLA-A*26:01. Described as above.
Test [2] addresses HLA-A*24:03. The test is described as above.
The next test concerns the target HLA-A*02:16. The description is as above.
The next test addresses HLA-B*39:01. Described as above.
The target of another test is HLA-B*18:01. The description is as above.
The target in another test is HLA-B*27:03. The description is as above.
The target of another test is HLA-B*46:01. Described as above.
Another test deals with HLA-A*02:01. The description is as above.
The next test concerns the target HLA-A*03:01. Described as above.
The target of another test is HLA-A*02:03. The description is as above.
The target in test [3] is HLA-B*15:01. The description is as above.
A further test concerns the target HLA-B*57:01. The test is described as above.
A further test concerns the target HLA-A*32:01. The test can be described thus: IEDB peptide-MHC binding, purified MHC/competitive/radioactivity; filed as Kd, often an IC50 or EC50 that approximates it; ≥ and ≤ were set here for values at or beyond the usual limits of such assays.
A further test addresses HLA-B*08:01. Described as above.
A further test addresses HLA-A*30:01. The description is as above.
The target of the next test is HLA-A*68:02. The test can be described thus: IEDB peptide-MHC binding, purified MHC/competitive/fluorescence; filed as Kd, often an IC50 or EC50 that approximates it; ≥ and ≤ were set here for values at or beyond the usual limits of such assays.
The next test deals with HLA-A*23:01. The test can be described thus: IEDB peptide-MHC binding, purified MHC/direct/fluorescence; filed as Kd, often an IC50 or EC50 that approximates it; ≥ and ≤ were set here for values at or beyond the usual limits of such assays. Particulars: source organism: Entamoeba histolytica HM-1:IMSS.
For test [4], the target named is HLA-A*24:03. The description is as above. Particulars: source organism: Entamoeba histolytica HM-1:IMSS.
[5] abbreviates: source organism: Vaccinia virus WR.
The mark [6] stands for this setting: source organism: Cryptosporidium parvum Iowa II.
Setting [7] is: source organism: Brucella suis 1330.
The mark [8] stands for this setting: source organism: Vaccinia virus Copenhagen.
Where [9] appears, read: source organism: Escherichia coli F11.
Setting [10] is: source organism: Vibrio cholerae 2740-80.
The mark [11] stands for this setting: source organism: Vibrio vulnificus YJ016.

Bounds are passed on as bounds.

As for FMAYTTSHI, the dissociation constant (Kd) – broadly, the equilibrium constant for the complex coming apart – is 7.58 nM with HLA-B*15:03 (setting [5]) and 0.132 µM with HLA-B*15:01 [1] (setting [5]).

Regarding DLAQDPMLI, the Kd with HLA-B*51:01 (setting [6]), with HLA-A*02:11 (setting [6]), in the test with HLA-A*69:01 (setting [6]), with HLA-B*15:17 (setting [6]), with HLA-A*02:12 (setting [6]) and with HLA-A*02:19 (setting [6]) was not below 20 µM each time. Moreover, the dissociation constant (Kd) with HLA-A*29:02 (setting [6]) is not below 20 µM; with HLA-A*26:01 (setting [6]) it was not below 20 µM; with HLA-A*24:03 [2] (setting [6]), not below 20 µM; in the test with HLA-A*02:16 (setting [6]), 0.397 µM; in the test with HLA-B*39:01 (setting [6]) it was not below 20 µM; with HLA-B*18:01 (setting [6]), not below 20 µM. Also, the dissociation constant Kd with HLA-B*27:03 (setting [6]), with HLA-B*46:01 (setting [6]), with HLA-A*02:01 (setting [6]), in the test with HLA-A*03:01 (setting [6]), in the test with HLA-A*02:03 (setting [6]) and with HLA-B*15:01 [3] (setting [6]) was not below 20 µM each time. The sequence further registered an equilibrium dissociation constant (Kd) with HLA-B*57:01 (setting [6]) not below 20 µM.

Turning to KVKDLFNTK, the Kd was not below 22100 nM with HLA-B*15:03 (setting [5]); 2.48 µM with HLA-A*32:01 (setting [5]); not below 42 µM with HLA-B*08:01 (setting [5]); 4.46 µM with HLA-B*15:01 [1] (setting [5]); 0.0377 µM in the test with HLA-A*30:01 (setting [5]).

For TEWPQLKVA, the Kd with HLA-B*51:01 (setting [7]), with HLA-A*02:11 (setting [7]), with HLA-A*69:01 (setting [7]), in the test with HLA-B*15:17 (setting [7]), with HLA-A*68:02 (setting [7]) and with HLA-A*02:12 (setting [7]) was not below 20 µM throughout. The equilibrium dissociation constant (Kd) was not below 20 µM with HLA-A*02:19 (setting [7]); not below 20 µM in the test with HLA-A*29:02 (setting [7]); not below 20 µM in the test with HLA-A*26:01 (setting [7]); not below 20 µM with HLA-A*02:16 (setting [7]); not below 20 µM in the test with HLA-B*39:01 (setting [7]); 0.0336 µM in the test with HLA-B*18:01 (setting [7]). Further, the equilibrium dissociation constant (Kd) with HLA-B*27:03 (setting [7]), in the test with HLA-B*46:01 (setting [7]), in the test with HLA-A*02:01 (setting [7]), with HLA-A*03:01 (setting [7]), in the test with HLA-A*02:03 (setting [7]) and with HLA-B*15:01 [3] (setting [7]) was not below 20 µM each time. Also, the dissociation constant Kd with HLA-B*57:01 (setting [7]) is not below 20 µM.

As to ISVLTGSSI, the Kd with HLA-B*15:03 (setting [8]) was 24.9 nM; with HLA-A*32:01 (setting [8]), 3.91 µM; with HLA-B*08:01 (setting [8]) it was not below 20.6 µM; with HLA-B*15:01 [1] (setting [8]) it was 0.0343 µM; in the test with HLA-A*30:01 (setting [8]) it was 3.22 µM.

For FLSEPYSYF, in the test with HLA-B*15:03 (setting [5]), the Kd stood at 29.3 nM.

On to SIRSMSRSI, for which the Kd with HLA-B*15:03 (setting [8]) was determined as 10300 nM; in the test with HLA-A*32:01 (setting [8]), 1.36 µM; in the test with HLA-B*08:01 (setting [8]), 0.0772 µM; with HLA-B*15:01 [1] (setting [8]), 0.362 µM; with HLA-A*30:01 (setting [8]) it was 0.132 µM.

As for QYQNEINYL, the Kd in the test with HLA-A*23:01 turned out to be 0.002 µM; in the test with HLA-A*24:03 [4], 0.003 µM.

Turning to GSGDDTWLI, the Kd is not below 20 µM with HLA-B*51:01 (setting [9]); not below 20 µM with HLA-A*02:11 (setting [9]); not below 20 µM with HLA-A*69:01 (setting [9]); not below 20 µM with HLA-B*15:17 (setting [9]); not below 20 µM in the test with HLA-A*68:02 (setting [9]); 1.27 µM in the test with HLA-A*02:12 (setting [9]). In addition, the Kd with HLA-A*02:19 (setting [9]), in the test with HLA-A*29:02 (setting [9]), with HLA-A*26:01 (setting [9]), with HLA-A*24:03 [2] (setting [9]), in the test with HLA-A*02:16 (setting [9]) and in the test with HLA-B*39:01 (setting [9]) was not below 20 µM throughout. The Kd with HLA-B*18:01 (setting [9]), with HLA-B*27:03 (setting [9]), with HLA-B*46:01 (setting [9]), with HLA-A*02:01 (setting [9]), with HLA-A*03:01 (setting [9]) and in the test with HLA-A*02:03 (setting [9]) was not below 20 µM in each case. Further, the dissociation constant Kd in the test with HLA-B*15:01 [3] (setting [9]) and with HLA-B*57:01 (setting [9]) was not below 20 µM each time.

For LATFTVNIF, the equilibrium dissociation constant (Kd) in the test with HLA-B*15:03 (setting [5]) is 35.1 nM.

Regarding LLSLEIVFF, the dissociation constant Kd with HLA-B*15:03 (setting [8]) turned out to be 2110 nM; with HLA-B*15:01 [1] (setting [8]) it was 0.142 µM.

Regarding KKYNNDKSF, the Kd with HLA-B*15:03 (setting [5]) was 0.0778 nM; with HLA-A*32:01 (setting [5]) it was 11.4 µM; with HLA-B*08:01 (setting [5]) it was 3.82 µM; with HLA-B*15:01 [1] (setting [5]), 6.62 µM; with HLA-A*30:01 (setting [5]), not below 20.3 µM.

LAVFPAMFW: the Kd in the test with HLA-A*02:11 (setting [10]), with HLA-A*69:01 (setting [10]), with HLA-A*68:02 (setting [10]), with HLA-A*02:12 (setting [10]), with HLA-A*02:19 (setting [10]) and with HLA-A*26:01 (setting [10]) was not below 20 µM throughout. For the same sequence, the Kd with HLA-A*02:16 (setting [10]), with HLA-B*39:01 (setting [10]), with HLA-B*18:01 (setting [10]), with HLA-B*27:03 (setting [10]), with HLA-B*46:01 (setting [10]) and in the test with HLA-A*02:01 (setting [10]) was not below 20 µM throughout. The Kd with HLA-A*03:01 (setting [10]) was not below 20 µM; with HLA-A*02:03 (setting [10]), not below 20 µM; with HLA-B*15:01 [3] (setting [10]), not below 20 µM; with HLA-B*57:01 (setting [10]), 0.0379 µM.

As for SKFVYVSVM, in the test with HLA-B*15:03 (setting [5]), the Kd worked out at 1.63 nM.

On to VTFGARASF, for which the Kd with HLA-A*02:11 (setting [11]), with HLA-A*69:01 (setting [11]), with HLA-A*02:12 (setting [11]), with HLA-A*02:19 (setting [11]), in the test with HLA-A*26:01 (setting [11]) and with HLA-A*02:16 (setting [11]) was not below 20 µM throughout. Besides, the equilibrium dissociation constant (Kd) with HLA-B*39:01 (setting [11]) is not below 20 µM; with HLA-B*27:03 (setting [11]), not below 20 µM; in the test with HLA-A*02:01 (setting [11]) it was not below 20 µM; with HLA-A*03:01 (setting [11]), not below 20 µM; with HLA-A*02:03 (setting [11]) it was not below 20 µM; with HLA-B*57:01 (setting [11]), 0.0974 µM.

AILSLNLRI: the Kd was determined as 237 nM in the test with HLA-B*15:03 (setting [5]); 0.151 µM with HLA-A*32:01 (setting [5]); 1.28 µM with HLA-B*08:01 (setting [5]); 0.142 µM with HLA-B*15:01 [1] (setting [5]); 0.155 µM with HLA-A*30:01 (setting [5]).

Consider WSTSFTNIF, for which, in the test with HLA-B*15:03 (setting [8]), the Kd was 5.88 nM.
